# According to US20220380801A1 (AstraZeneca / MedImmune, published 2022):
# T1: HCV NS3/4A PR D168E (S139A background), in the presence of simeprevir (Hepatitis C virus subtype 1a)
# T1 chain: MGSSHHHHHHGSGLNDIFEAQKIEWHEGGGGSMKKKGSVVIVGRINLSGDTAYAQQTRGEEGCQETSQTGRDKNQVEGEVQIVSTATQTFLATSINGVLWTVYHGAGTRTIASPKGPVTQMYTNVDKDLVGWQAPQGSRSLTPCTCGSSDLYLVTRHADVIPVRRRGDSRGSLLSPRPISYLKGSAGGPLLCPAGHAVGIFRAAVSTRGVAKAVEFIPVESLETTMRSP
# T2: HCV NS3/4A PR K136D (S139A background), in the presence of simeprevir (Hepatitis C virus subtype 1a)
# T2 chain: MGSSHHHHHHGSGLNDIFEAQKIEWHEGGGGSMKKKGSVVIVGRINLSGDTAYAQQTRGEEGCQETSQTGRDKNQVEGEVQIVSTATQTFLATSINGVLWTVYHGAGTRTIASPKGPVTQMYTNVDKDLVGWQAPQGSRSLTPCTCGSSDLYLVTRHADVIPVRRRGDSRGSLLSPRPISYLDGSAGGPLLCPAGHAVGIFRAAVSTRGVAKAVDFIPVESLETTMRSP
# T3: HCV NS3/4A PR K136N (S139A background), in the presence of simeprevir (Hepatitis C virus subtype 1a)
# T3 chain: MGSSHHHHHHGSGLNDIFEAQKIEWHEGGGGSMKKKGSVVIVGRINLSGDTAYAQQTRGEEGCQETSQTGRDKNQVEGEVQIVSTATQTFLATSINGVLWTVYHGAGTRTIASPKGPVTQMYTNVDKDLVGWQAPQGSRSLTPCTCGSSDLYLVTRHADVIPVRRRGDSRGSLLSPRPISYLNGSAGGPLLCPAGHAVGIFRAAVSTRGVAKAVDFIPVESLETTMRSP
# Experiments:
# [1] = target: T4, HCV NS3/4A PR (S139A):simeprevir complex (Hepatitis C virus subtype 1a); assay: HTRF, with simeprevir
# [2] = target: T4, HCV NS3/4A PR (S139A):simeprevir complex; assay: phage ELISA
# [3] = target: T4, HCV NS3/4A PR (S139A):simeprevir complex; assay: SPR Biacore 8K, PRSIM immobilised, protease flowed with 10 nM simeprevir
# [4] = target: T5, BSA, in the presence of simeprevir (UniProt P02769 25-607); assay: SPR Biacore 8K, PRSIM immobilised, BSA + 10 nM simeprevir
# T5 construct: also called BSA control
# [5] = target: T1, HCV NS3/4A PR D168E (S139A background), …
# [6] = target: T2, HCV NS3/4A PR K136D (S139A background), …
# [7] = target: T3, HCV NS3/4A PR K136N (S139A background), …
# [8] = target: T1, HCV NS3/4A PR D168E (S139A background), …; assay: SPR Biacore 8K, with simeprevir
# [9] = target: T2, HCV NS3/4A PR K136D (S139A background), …; assay: SPR Biacore 8K, with simeprevir
# [10] = target: T3, HCV NS3/4A PR K136N (S139A background), …; assay: SPR Biacore 8K, with simeprevir
# [11] = target: T1, HCV NS3/4A PR D168E (S139A background), …
# [12] = target: T2, HCV NS3/4A PR K136D (S139A background), …
# [13] = target: T3, HCV NS3/4A PR K136N (S139A background), …
# [14] = target: T2, HCV NS3/4A PR K136D (S139A background), …; assay: SPR Biacore 8K, simeprevir titrated
# T5 sequence (P02769 25-607 limits assumed): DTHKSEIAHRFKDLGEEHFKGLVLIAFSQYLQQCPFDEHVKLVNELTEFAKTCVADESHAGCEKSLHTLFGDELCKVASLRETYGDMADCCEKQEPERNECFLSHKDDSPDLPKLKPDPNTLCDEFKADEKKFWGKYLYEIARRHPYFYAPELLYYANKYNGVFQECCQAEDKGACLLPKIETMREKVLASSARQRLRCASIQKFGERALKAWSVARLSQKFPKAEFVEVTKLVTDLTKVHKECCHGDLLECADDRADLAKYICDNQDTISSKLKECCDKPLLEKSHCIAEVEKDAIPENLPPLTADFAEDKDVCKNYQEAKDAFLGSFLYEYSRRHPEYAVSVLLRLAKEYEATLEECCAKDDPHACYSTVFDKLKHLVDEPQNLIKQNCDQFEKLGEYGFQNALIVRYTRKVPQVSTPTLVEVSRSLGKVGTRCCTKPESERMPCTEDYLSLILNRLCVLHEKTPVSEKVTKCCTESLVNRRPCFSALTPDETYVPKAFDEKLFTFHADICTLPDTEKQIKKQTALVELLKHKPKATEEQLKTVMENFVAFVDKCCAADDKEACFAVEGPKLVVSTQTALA
Binder,HTRF max. signal (% delta F) [1],Binding fold change [(HCV protease + Simeprevir binding)/HCV protease alone] [2],Kd [3],binding result [4],further results
PRSIM_36 (designed binder) RLDAPSQIEVKDVTDTTALITWSWPRDDDYDIWYFELTYGIKDVPGDRTTIKLLNYASPYSIGNLKPDTEYEVSLISVVPDTYGRGTSNPAKITFKTGL,1440 % delta F,27.9 fold,9.7 nM,no binding (tested: 20 nM),koff [3]: 0.0498 s⁻¹; kon [3]: 5.15e+06 M⁻¹ s⁻¹
PRSIM_32 (designed binder) RLDAPSQIEVKDVTDTTALITWWSPRYYYASISGFELTYGIKDVPGDRTTIKLDYASNDYSIGNLKPDTEYEVSLISWNYGDWRYSSSNPAKITFKTGL,1960 % delta F,22.4 fold,16 nM,no binding (tested: 20 nM),–
PRSIM_23 (designed binder) RLDAPSQIEVKDVTDTTALITWVDPRYDDIWWFELTYGIKDVPGDRTTIKLYLNDPYYSIGNLKPDTEYEVSLISYTGDSYSRSGSNPAKITFKTGL,–,–,–,–,Kd [5]: 14.7 nM; Kd [6]: 33 nM; Kd [7]: 39.5 nM; kon [7]: 5.31e+08 M⁻¹ s⁻¹; fold decrease of affinity against 'wt' protease [8]: ~3 fold; fold decrease of affinity against 'Wt' [9]: 6 to 7 fold; fold decrease of affinity against 'Wt' [10]: 6 to 7 fold; Simeprevir EC50 for induction of heterodimerisation [11]: 3.69 nM; Simeprevir EC50 for induction of heterodimerisation [12]: 132 nM; Simeprevir EC50 for induction of heterodimerisation [13]: 8.06 nM; fold increase of the simeprevir EC50 against the wt complex [14]: ~30 fold
"PRSIM_04 (scFv, also called PRSIM_4) scFv: QVQLVQSGAEVKKPGSSVKVSCKASGGTFSSYAISWVRQAPGQGLEWMGGIIPIFGTANYAQKFQGRVTITADESTSTAYMELSSLRSEDTAVYYCARGMAHFYQFDLWGQGTLVTVSSGGGGSGGGGSGGGGSAQSVLTQPPSASGTPGQRVTISCSGSSSNIGSNTVNWYQQLPGTAPKLLIYSNNQRPSGVPDRFSGSKSGTSASLAISGLQSEDEADYYCAAGDHDHEHVVFGGGTKLTVL",–,–,–,no binding (tested: 20 nM),–
PRSIM_57 (scFv) scFv: QVQLVQSGAEVKKPGSSVKVSCKASGGTFSSYAISWVRQAPGQGLEWMGGIIPIFGTANYAQKFQGRVTITADESTSTAYMELSSLRSEDTAVYYCARHTNYITVFDYWGQGTLVTVSSGGGGSGGGGSGGGGSAQSVLTQPPSASGTPGQRVTISCSGSSSNIGSNTVNWYQQLPGTAPKLLIYSNNQRPSGVPDRFSGSKSGTSASLAISGLQSEDEADYYCAAWDHHWEQVVFGGGTKLTVL,–,–,–,no binding (tested: 20 nM),–
PRSIM_47 (designed binder) RLDAPSQIEVKDVTDTTALITWSRPGVSIWYFELTYGIKDVPGDRTTIKLDYRSYYYSIGNLKPDTEYEVSLISGSYGLVGVRASNPAKITFKTGL,1370 % delta F,25.3 fold,3.9 nM,no binding (tested: 20 nM),–
PRSIM_33 (designed binder) RLDAPSQIEVKDVTDTTALITWYPPGRWYDDIWYFELTYGIKDVPGDRTTIKLARGDDVYSIGNLKPDTEYEVSLISWGPDRGDRAGSNPAKITFKTGL,1700 % delta F,29.9 fold,8.3 nM,no binding (tested: 20 nM),koff [3]: 0.0303 s⁻¹; kon [3]: 3.65e+06 M⁻¹ s⁻¹
PRSIM_67 (scFv) scFv: EVQLVQSGAEVKKPGAAVRISCKTSGYVFTSYYVHWVRQAPGQGLEWMGVINPSGGNTNYAQKFQDRVTMTRDTSTTTVYMELSSLMFDDTAVYYCAKRDYGGPLANWGRGTLVTVSSGGGGSGGGGSGGGGSALSYELTQPPSVSEAPRQRVTISCSGSSSNIGNNAVNWYQQLPGKAPKLLIFYDDLLPSGVSDRFSGSKSGTSASLAISGLQSEDEADYYCAAWDDSLNGLVFGTGTKLTVL,–,–,–,no binding (tested: 20 nM),–
PRSIM_75 (scFv) scFv: EVQLVQSGAEVKKPGSSVKVSCKASGGSFNSYTLDWVRQAPGQGLEWMGGIIPVFGSPNYGQKFQGRVTITADESTSTAYMELSSLKSDDTAVYYCARGLVYQPLDSWGRGTLVTVSSGGGGSGGGGSGGGGSAQAVLTQPSSASGTPGQRVTISCSGSSSNIGSYTVNWYQQFPGTAPKLLIYSNTQRPSGVPDRFSGSKSGTSASLAISGLQSEDEADYYCAAWDDSLNGWVFGGGTKVTVL,–,–,–,no binding (tested: 20 nM),–
PRSIM_72 (scFv) scFv: QVQLVQSGAEVKKPGSSVKVSCKVSGGSFNNYGVSWVRQAPGQGLEWMGRIIPIRDTANYAQKFQGRVTITADTSTNIAYMELSGLRSDDTAVYYCARVLEDDFWGGYYDFYFYVMDVWGQGTLVTVSSGGGGSGGGGSGGGGSALSSELTQDPVVSVPLGQTARITCQGDSLTTYYATWYQQKPGQAPVLVLYNEHKRPSGISDRFSGSSAGDAASLTITDTQAEDEADYYCSSRDTGGKHVLFGGGTKLTVL,–,–,–,no binding (tested: 20 nM),–
